The text below walks through data of paper PMC10340464, “Identification of a Novel SSTR3 Full Agonist for the Treatment of Nonfunctioning Pituitary Adenomas” (Cancers, 2023).

Numbered stars: 1 amine (or outer) side, 2 acyl side, 3 side chain; on linkers, the order of the positions; unused ones are H or OH. Square brackets hold non-standard residues; d marks the D form. Side chains are listed from the residue outwards. Peptide text beside a SMILES is read from it. * marks the point of attachment. Ethylenediamine = C(CN[*:2])N[*:1]; Hyp = O=C(O)[C@@H]1C[C@@H](O)CN1; Phg = N[C@H](C(=O)O)c1ccccc1; CO = O=C([*:1])[*:2]; Bn = c1ccc(C*)cc1

The target in data set [1] is human somatostatin receptor 5 (human) (UniProt P35346).
Sequence of human somatostatin receptor 5 (human) (P35346 whole entry): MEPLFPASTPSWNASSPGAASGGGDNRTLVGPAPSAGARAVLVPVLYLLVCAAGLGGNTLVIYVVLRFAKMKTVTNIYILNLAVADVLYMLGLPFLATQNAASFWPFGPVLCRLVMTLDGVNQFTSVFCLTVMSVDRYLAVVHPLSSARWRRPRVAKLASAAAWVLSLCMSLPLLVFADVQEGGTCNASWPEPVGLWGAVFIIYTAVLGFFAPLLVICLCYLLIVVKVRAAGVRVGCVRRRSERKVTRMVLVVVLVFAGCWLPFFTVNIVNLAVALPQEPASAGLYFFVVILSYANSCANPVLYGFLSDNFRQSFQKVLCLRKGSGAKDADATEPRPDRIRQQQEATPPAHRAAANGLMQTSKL
For data set [2] the following is noted: species, matrix, method and reference not given; cited from earlier work.
In data set [3] the target is human somatostatin receptor 5 (human) (UniProt P35346). The data set is described as follows: radioligand binding; competition with 3-[125I]iodotyrosyl11 somatostatin-14 on membrane extracts of CHO-K1 cells expressing the human receptor; agonist 10^-11 to 3 x 10^-7 M, n = 2; 60 min at 25 °C, filtered and counted.
For data set [4], the target named is human somatostatin receptor 2 (human) (UniProt P30874). Described as above.
Sequence of human somatostatin receptor 2 (human) (P30874 whole entry): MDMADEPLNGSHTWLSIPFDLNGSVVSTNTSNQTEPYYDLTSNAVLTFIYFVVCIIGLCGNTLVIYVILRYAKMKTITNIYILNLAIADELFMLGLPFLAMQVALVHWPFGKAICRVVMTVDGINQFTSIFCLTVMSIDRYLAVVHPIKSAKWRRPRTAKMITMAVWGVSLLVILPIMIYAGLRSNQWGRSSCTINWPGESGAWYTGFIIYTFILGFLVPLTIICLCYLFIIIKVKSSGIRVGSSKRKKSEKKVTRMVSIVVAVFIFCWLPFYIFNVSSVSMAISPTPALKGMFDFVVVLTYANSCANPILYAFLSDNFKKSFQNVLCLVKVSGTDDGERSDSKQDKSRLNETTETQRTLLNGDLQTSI
Data set [5] deals with human somatostatin receptor 3 (human) (UniProt P32745). The description is as above.
Sequence of human somatostatin receptor 3 (human) (P32745 whole entry): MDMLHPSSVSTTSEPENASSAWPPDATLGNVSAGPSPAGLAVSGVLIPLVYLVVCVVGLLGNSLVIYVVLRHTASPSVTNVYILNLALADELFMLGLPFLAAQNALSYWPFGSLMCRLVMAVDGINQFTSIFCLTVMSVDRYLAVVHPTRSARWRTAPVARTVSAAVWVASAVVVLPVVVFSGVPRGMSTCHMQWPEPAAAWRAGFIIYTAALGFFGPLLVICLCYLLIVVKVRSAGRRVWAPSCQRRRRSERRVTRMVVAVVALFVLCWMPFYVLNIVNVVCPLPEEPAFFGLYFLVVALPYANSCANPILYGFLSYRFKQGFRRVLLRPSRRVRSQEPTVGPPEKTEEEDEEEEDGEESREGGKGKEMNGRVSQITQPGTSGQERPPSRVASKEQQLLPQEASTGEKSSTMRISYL
In data set [6] the target is human somatostatin receptor 1 (human) (UniProt P30872). The description is as above.
Sequence of human somatostatin receptor 1 (human) (P30872 whole entry): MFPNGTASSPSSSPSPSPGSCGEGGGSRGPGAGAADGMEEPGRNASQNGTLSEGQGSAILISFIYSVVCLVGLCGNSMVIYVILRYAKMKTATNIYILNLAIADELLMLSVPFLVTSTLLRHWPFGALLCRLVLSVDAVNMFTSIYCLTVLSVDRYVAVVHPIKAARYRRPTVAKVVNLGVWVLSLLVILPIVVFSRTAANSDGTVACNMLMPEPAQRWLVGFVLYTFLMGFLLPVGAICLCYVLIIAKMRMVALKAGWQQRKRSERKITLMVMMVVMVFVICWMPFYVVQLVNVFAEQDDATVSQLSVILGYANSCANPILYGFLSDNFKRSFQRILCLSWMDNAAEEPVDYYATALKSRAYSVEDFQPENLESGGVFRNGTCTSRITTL
The target of data set [7] is human somatostatin receptor 3 (human) (UniProt P32745).

For the compound Octreotide (peptide), the receptor internalization in U2OS cells transfected with SSTR5-tGFP, 10^-9 to 10^-5 M, 7 h; the cell gives 10^-5 M (10^-6 M) (% of activity) in data set [1] amounted to 39.3.
As for `NCCCC[C@@H]1NC(=O)[C@@H](Cc2c[nH]c3ccccc23)NC(=O)[C@H](c2ccccc2)NC(=O)[C@@H]2C[C@@H](OC(=O)NCCN)CN2C(=O)[C@H](Cc2ccccc2)NC(=O)[C@H](Cc2ccc(OCc3ccccc3)cc2)NC1=O` [Pasireotide] (cyclo([Hyp]([CO-Ethylenediamine])[Phg][dW]KY(Bn)F)), in data set [2], the Half-time life is on record as 18 h.
As for `CSCC[C@H](NC(=O)[C@H](C)NC(=O)[C@@H]1CCCN1C(=O)[C@H](CC(N)=O)NC(=O)[C@H](CO)NC(=O)[C@H](CC(N)=O)NC(=O)[C@H](C)NC(=O)[C@@H](N)CO)C(=O)N[C@@H](C)C(=O)N1CCC[C@H]1C(=O)N[C@@H](CCCNC(=N)N)C(=O)N[C@@H](CCC(=O)O)C(=O)N[C@@H](CCCNC(=N)N)C(=O)N[C@@H](CCCCN)C(=O)N[C@@H](C)C(=O)NCC(=O)N[C@H]1CSSC[C@@H](C(=O)O)NC(=O)[C@H](CO)NC(=O)[C@H]([C@@H](C)O)NC(=O)[C@H](Cc2ccccc2)NC(=O)[C@H]([C@@H](C)O)NC(=O)[C@H](CCCCN)NC(=O)[C@H](Cc2c[nH]c3ccccc23)NC(=O)[C@H](Cc2ccccc2)NC(=O)[C@H](Cc2ccccc2)NC(=O)[C@H](CC(N)=O)NC(=O)[C@H](CCCCN)NC1=O` [SST-28], the Half-time life in data set [2] was 0.0333 h.
`C[C@@H](O)[C@@H]1NC(=O)[C@H](CCCCN)NC(=O)[C@@H](Cc2c[nH]c3ccccc23)NC(=O)[C@H](Cc2ccccc2)NC(=O)[C@@H](NC(=O)[C@H](N)Cc2ccccc2)CSSC[C@@H](C(=O)N[C@H](CO)[C@@H](C)O)NC1=O` [Octreotide]: the Half-time life in data set [2] was 2 h.
Take `C[C@H](N)C(=O)NCC(=O)N[C@H]1CSSC[C@@H](C(=O)O)NC(=O)[C@H](CO)NC(=O)[C@H]([C@@H](C)O)NC(=O)[C@H](Cc2ccccc2)NC(=O)[C@H]([C@@H](C)O)NC(=O)[C@H](CCCCN)NC(=O)[C@H](Cc2c[nH]c3ccccc23)NC(=O)[C@H](Cc2ccccc2)NC(=O)[C@H](Cc2ccccc2)NC(=O)[C@H](CC(N)=O)NC(=O)[C@H](CCCCN)NC1=O` [SST-14]: in data set [2], the Half-time life was 0.0417 h.
Pasireotide (peptide): the IC50 – broadly, the concentration that inhibits the measured activity by half – in data set [3] was 0.37 nM; in data set [4], 5.5 nM; in data set [5] it was 2.73 nM; in data set [6], 43.9 nM. In addition, the EC50 of GIRK2 channel activation via SSTR5 in transfected HEK293 cells (fluorescence membrane potential assay) in data set [1] is 16.5 nM. This compound also had a receptor internalization in U2OS cells transfected with SSTR5-tGFP, 10^-9 to 10^-5 M, 7 h; the cell gives 10^-5 M (10^-6 M) (% of activity) in data set [1] of 43.9. In data set [7], this compound had an EC50 of GIRK2 channel activation via SSTR3 in transfected HEK293 cells (fluorescence membrane potential assay) of 63 nM. The compound also came in with a receptor internalization in U2OS cells transfected with SSTR3-tGFP, 10^-9 to 10^-5 M, 3 h; the cell gives 10^-5 M (10^-6 M) (% of activity) in data set [7] of 46.3.
